Publication PMC4002122 (Chemical Research in Toxicology, 2014)

Columns and labels:
UGT1A9 = target: T1, UGT1A9 (Homo sapiens, UniProt O60656); settings: cited from earlier work; for Km: affinity of UGT1A9 for tRes and natural analogs
T1 sequence (O60656 26-530): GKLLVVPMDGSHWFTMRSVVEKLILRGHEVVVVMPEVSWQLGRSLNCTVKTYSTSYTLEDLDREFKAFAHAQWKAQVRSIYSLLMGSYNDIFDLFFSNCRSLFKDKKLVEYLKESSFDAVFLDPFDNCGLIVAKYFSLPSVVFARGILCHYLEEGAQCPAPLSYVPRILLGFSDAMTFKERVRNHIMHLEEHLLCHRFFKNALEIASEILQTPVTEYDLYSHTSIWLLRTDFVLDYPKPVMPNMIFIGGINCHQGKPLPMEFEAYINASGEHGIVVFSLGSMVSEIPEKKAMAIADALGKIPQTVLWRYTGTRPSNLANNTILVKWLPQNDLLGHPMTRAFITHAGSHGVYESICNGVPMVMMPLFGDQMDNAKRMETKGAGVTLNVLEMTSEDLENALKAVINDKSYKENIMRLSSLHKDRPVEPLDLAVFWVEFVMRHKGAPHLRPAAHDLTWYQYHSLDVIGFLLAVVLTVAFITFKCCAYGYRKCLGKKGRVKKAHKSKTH

UGT1A1 = target: T2, UGT1A1 (Homo sapiens, UniProt P22309); settings: tRes-3-O-glucuronidation; cited from earlier work
T2 sequence (P22309 26-533): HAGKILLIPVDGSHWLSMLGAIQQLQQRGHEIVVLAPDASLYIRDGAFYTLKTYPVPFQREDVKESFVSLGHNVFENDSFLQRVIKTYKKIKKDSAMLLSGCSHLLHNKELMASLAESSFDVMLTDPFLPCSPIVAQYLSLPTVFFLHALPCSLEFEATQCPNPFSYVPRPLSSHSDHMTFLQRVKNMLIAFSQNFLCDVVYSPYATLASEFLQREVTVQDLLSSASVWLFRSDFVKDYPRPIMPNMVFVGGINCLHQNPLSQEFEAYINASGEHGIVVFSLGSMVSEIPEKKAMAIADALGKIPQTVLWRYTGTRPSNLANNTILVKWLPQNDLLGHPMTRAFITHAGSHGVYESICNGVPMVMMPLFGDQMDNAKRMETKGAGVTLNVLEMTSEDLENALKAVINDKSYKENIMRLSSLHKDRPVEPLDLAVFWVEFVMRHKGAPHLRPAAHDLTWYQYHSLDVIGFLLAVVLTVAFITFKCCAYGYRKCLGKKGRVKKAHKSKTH

[1] = substrate: COc1ccc(/C=C(/C(=O)O)c2cc(OC)c(OC)c(OC)c2)cc1O; assay: Steady state kinetics of glucuronidation by recombinant UGT1A7; type: in vitro ADME, human; settings: other: NI-12a-O-gluc formation, UDP-GlcUA 3 mM, 60 min, 37 °C
[2] = substrate: COc1ccc(/C=C(/C(=O)O)c2cc(OC)c(OC)c(OC)c2)cc1O; assay: Steady state kinetics of glucuronidation by recombinant UGT1A8; type: in vitro ADME, human; settings: other: NI-12a-O-gluc formation, UDP-GlcUA 3 mM, 60 min, 37 °C
[3] = substrate: COc1ccc(C=Cc2cc(OC)cc(OC)c2/C=N/O)cc1; assay: Steady state kinetics of glucuronidation by recombinant UGT1A1; type: in vitro ADME, human; settings: other: NI-ST-05–N–O-gluc formation; estimated based on an incomplete data set
[4] = substrate: COc1ccc(/C=C(/C(=O)O)c2cc(OC)c(OC)c(OC)c2)cc1O; assay: Steady state kinetics of glucuronidation by recombinant UGT1A9; type: in vitro ADME, human; settings: other: NI-12a-O-gluc formation, UDP-GlcUA 3 mM, 60 min, 37 °C
[5] = substrate: COc1ccc(/C=C(/C(=O)O)c2cc(OC)c(OC)c(OC)c2)cc1O; assay: Steady state kinetics of glucuronidation by recombinant UGT1A10; type: in vitro ADME, human; settings: other: NI-12a-O-gluc formation; UDP-GlcUA 3 mM, 60 min, 37 °C
[6] = substrate: COc1ccc(C=Cc2cc(OC)cc(OC)c2/C=N/O)cc1; assay: as above; type: in vitro ADME, human; settings: other: NI-ST-05–N–O-gluc formation; Hill equation (S50)

CC(C)/C=C/c1c(O)cc(/C=C/c2ccc(O)cc2)cc1O [tA3]
Km (UGT1A9): 21 µM

Oc1ccc(/C=C/c2cc(O)cc(O)c2)cc1 [tRes, trans-3,5,4′-trihydroxystilbene]
Vmax (UGT1A1): 31 nmol/mg/min | Km (UGT1A9): 2.5 µM | Vmax (UGT1A9; tRes-3-O-glucuronide formation): 2.5 nmol/mg/min

trans-arachidin-1 [tA1]
Km (UGT1A9): 190 µM

B1: UGT1A7 (Homo sapiens) (protein)
chain: GKLLVVPMDGSHWFTMQSVVEKLILRGHEVVVVMPEVSWQLGRSLNCTVKTYSTSYTLEDQDREFMVFADARWTAPLRSAFSLLTSSSNGIFDLFFSNCRSLFNDRKLVEYLKESCFDAVFLDPFDACGLIVAKYFSLPSVVFARGIFCHYLEEGAQCPAPLSYVPRLLLGFSDAMTFKERVWNHIMHLEEHLFCPYFFKNVLEIASEILQTPVTAYDLYSHTSIWLLRTDFVLEYPKPVMPNMIFIGGINCHQGKPVPMEFEAYINASGEHGIVVFSLGSMVSEIPEKKAMAIADALGKIPQTVLWRYTGTRPSNLANNTILVKWLPQNDLLGHPMTRAFITHAGSHGVYESICNGVPMVMMPLFGDQMDNAKRMETKGAGVTLNVLEMTSEDLENALKAVINDKSYKENIMRLSSLHKDRPVEPLDLAVFWVEFVMRHKGAPHLRPAAHDLTWYQYHSLDVIGFLLAVVLTVAFITFKCCAYGYRKCLGKKGRVKKAHKSKTH
Km [1]: 62 ± 43 µM | Vmax [1]: 2.2 ± 0.77 nmol/mg/min | Vmax/Km [1]: 35 µL/min/mg

B2: UGT1A8 (Homo sapiens) (protein)
chain: GKLLVVPMDGSHWFTMQSVVEKLILRGHEVVVVMPEVSWQLGKSLNCTVKTYSTSYTLEDLDREFMDFADAQWKAQVRSLFSLFLSSSNGFFNLFFSHCRSLFNDRKLVEYLKESSFDAVFLDPFDACGLIVAKYFSLPSVVFARGIACHYLEEGAQCPAPLSYVPRILLGFSDAMTFKERVRNHIMHLEEHLFCQYFSKNALEIASEILQTPVTAYDLYSHTSIWLLRTDFVLDYPKPVMPNMIFIGGINCHQGKPLPMEFEAYINASGEHGIVVFSLGSMVSEIPEKKAMAIADALGKIPQTVLWRYTGTRPSNLANNTILVKWLPQNDLLGHPMTRAFITHAGSHGVYESICNGVPMVMMPLFGDQMDNAKRMETKGAGVTLNVLEMTSEDLENALKAVINDKSYKENIMRLSSLHKDRPVEPLDLAVFWVEFVMRHKGAPHLRPAAHDLTWYQYHSLDVIGFLLAVVLTVAFITFKCCAYGYRKCLGKKGRVKKAHKSKTH
Km [2]: 240 ± 76 µM | Vmax [2]: 6.0 ± 1.3 nmol/mg/min | Vmax/Km [2]: 25 µL/min/mg

B3: UGT1A1 (Homo sapiens) (protein)
chain: T2 sequence (P22309 26-533)
Vmax [3]: 0.00021 ± 2e-05 µmol/min/mg

B4: UGT1A9 (Homo sapiens) (protein)
chain: T1 sequence (O60656 26-530)
Km [4]: 240 ± 40 µM | Vmax [4]: 0.0083 µmol/min/mg | Vmax/Km [4]: 35 µL/min/mg

B5: UGT1A10 (Homo sapiens) (protein)
chain: GKLLVVPMDGSHWFTMQSVVEKLILRGHEVVVVMPEVSWQLERSLNCTVKTYSTSYTLEDQNREFMVFAHAQWKAQAQSIFSLLMSSSSGFLDLFFSHCRSLFNDRKLVEYLKESSFDAVFLDPFDTCGLIVAKYFSLPSVVFTRGIFCHHLEEGAQCPAPLSYVPNDLLGFSDAMTFKERVWNHIVHLEDHLFCQYLFRNALEIASEILQTPVTAYDLYSHTSIWLLRTDFVLDYPKPVMPNMIFIGGINCHQGKPLPMEFEAYINASGEHGIVVFSLGSMVSEIPEKKAMAIADALGKIPQTVLWRYTGTRPSNLANNTILVKWLPQNDLLGHPMTRAFITHAGSHGVYESICNGVPMVMMPLFGDQMDNAKRMETKGAGVTLNVLEMTSEDLENALKAVINDKSYKENIMRLSSLHKDRPVEPLDLAVFWVEFVMRHKGAPHLRPAAHDLTWYQYHSLDVIGFLLAVVLTVAFITFKCCAYGYRKCLGKKGRVKKAHKSKTH
Km [5]: 500 ± 75 µM | Vmax [5]: 3.5 ± 0.24 nmol/mg/min | Vmax/Km [5]: 7 µL/min/mg | K0.5 [6]: 6.2 ± 0.35 µM | Vmax [6]: 0.00065 µmol/min/mg | Vmax/Km [6]: 105 µL/min/mg
